Measured values: patent US20180238866A1 (University of California, published 2018)
Where no end group is shown, it is not given here.

B1: scrambled site 2 peptide of β3 (S2-β3scr), GST fusion (peptide)
chain: HHHHHHVHDSHYSGQGAMSDNTNSPQT
modifications: also: GST fusion protein, GST not in chain
notes: Control peptide; also called scrambled S2-β3 peptide; scrambled β3 peptide; not shown: glutathione S-transferase (GST) from vector pGEX-2T
B2: disintegrin domain of human ADAM15, GST fusion protein (ligand)
chain: not shown
modifications: FITC-labeled in the flow cytometry assays
notes: domain: disintegrin domain; also called ADAM15 disintegrin domain; not shown: glutathione S-transferase (GST) fusion partner
B3: rat fibronectin type III domains 8-11 (FN8-11), GST fusion protein (ligand)
chain: not shown
modifications: FITC-labeled in the flow cytometry assays
notes: domain: Fibronectin type III domains 8-11; also called RGD-containing fibronectin fragment; not shown: glutathione S-transferase (GST) fusion partner
B4: secreted phospholipase A2 type IIA (sPLA2-IIA), wild type, recombinant (enzyme)
chain: NLVNFHRMIKLTTGKEAALSYGFYGCHCGVGGRGSPKDATDRCCVTHDCCYKRLEKRGCGTKFLSYKFSNSGSRITCAKQDSCRSQLCECDKAAATCFARNKTTYNKKYQYYSNKHCRGSTPRC
modifications: FITC-labeled in the flow cytometry binding assays of FIG. 7a-b ; FITC-labelled in the flow cytometry binding assays (FIG. 7a-b).
notes: PDB 1DCY was used for it in the docking simulation; also called WT sPLA2-IIA; sPLA-IIA
B5: Fibrinogen γ-chain C-terminal domain that lacks residues 400-411 (γC399tr) (ligand, UniProt P02679 177-425, looked up)
chain: KDCQDIANKGAKQSGLYFIKPLKANQQFLVYCEIDGSGNGWTVFQKRLDGSVDFKKNWIQYKEGFGHLSPTGTTEFWLGNEKIHLISTQSAIPYALRVELEDWNGRTSTADYAMFKVGPEADKYRLTYAYFAGGDAGDAFDGFDFGDDPSDKFFTSHNGMQFSTWDNDNDKFEGNCAEQDGSGWWMNKCHAGHLNGVYYQGGTYSKASTPNGYDNGIIWATWKTRWYSMKKTTMKIIPFNRLTIGEGQQ
modifications: FITC-labeled in the flow cytometry assays
notes: domain: Fibrinogen γ-chain C-terminal domain that lacks residues 400-411

Assays:
[1] = biological target: B4; experiment: ELISA-type: GST-tagged peptide on immobilized sPLA2-IIA, anti-GST-HRP
[2] = biological target: T1, integrin αvβ3 on the cell surface of U937 cells and of K562 cells that express human integrin αvβ3 (human, UniProt P06756 31-1048; P05106 27-788); experiment: flow cytometry, FITC-labeled ADAM15 on U937 and αvβ3-K562 cells, with sPLA2-IIA (20 µg/ml)
T1 construct: whole, on cells; Two cell types carry the same human integrin; also called αvβ3 on U937; αvβ3-K562
Description: Data are shown as means (MFI)±SEM of three independent experiments.
(§1) The cells were washed with PBS/0.02% BSA and analyzed by FACSCalibur (Becton Dickinson, Mountain View, Calif.).

[3] = biological target: T2, integrin α5β1 on K562 cells and U937 cells (UniProt P08648 42-1049; P05556 21-798, limits assumed); experiment: flow cytometry, FITC-FN8-11 on U937 and K562 cells, with sPLA2-IIA
T2 construct: whole, on cells
Protocol: Bound FITC was measured using flow cytometry.
as §1

[4] = biological target: T2, integrin α5β1 on K562 cells and U937 …; experiment: flow cytometry, FITC-sPLA2-IIA (10 µg/ml) on K562 cells
Protocol: Bound FITC was measured using flow cytometry. Data are shown as means±SEM of MFI of three independent experiments. c. […] Data are shown as means±SEM of % adhesion of three independent experiments. d-f. […] Data are shown as means±SEM of MFI of three independent experiments. […] Data are shown as means±SEM of MFI of three independent experiments, j-l. […] Data are shown as means±SEM of MFI of three independent experiments.

[5] = biological target: T3, control GST (UniProt P08515 1-218 = GST); experiment: ELISA-type: GST-tagged protein on immobilized sPLA2-IIA, anti-GST-HRP
T3 construct: Control protein
Protocol: Remaining protein binding sites were blocked by incubating with PBS/0.1% BSA for 30 min at room temperature. After washing with PBS, S2 peptides were added to the wells and incubated in PBS for 2 h at room temperature.

[6] = biological target: T1, integrin αvβ3 on the cell surface of …; experiment: flow cytometry, FITC-γC399tr on U937 and αvβ3-K562 cells with sPLA2-IIA (20 µg/ml) and Cmpd21
Description: as §1

[7] = biological target: T4, recombinant soluble integrin αvβ3 (UniProt P06756 31-992; P05106 27-718, limits assumed); experiment: ELISA-type: soluble αvβ3 (5 µg/ml) on immobilized γC399tr, 1 mM Ca2+, with sPLA2-IIA; bound αvβ3 detected with anti-β3 mAb AV-10
T4 construct: also called soluble αvβ3
Protocol: Remaining protein binding sites were blocked by incubating with PBS/0.1% BSA for 30 min at room temperature.

T2 sequence (P08648 42-1049 limits assumed, chain 1 of 2): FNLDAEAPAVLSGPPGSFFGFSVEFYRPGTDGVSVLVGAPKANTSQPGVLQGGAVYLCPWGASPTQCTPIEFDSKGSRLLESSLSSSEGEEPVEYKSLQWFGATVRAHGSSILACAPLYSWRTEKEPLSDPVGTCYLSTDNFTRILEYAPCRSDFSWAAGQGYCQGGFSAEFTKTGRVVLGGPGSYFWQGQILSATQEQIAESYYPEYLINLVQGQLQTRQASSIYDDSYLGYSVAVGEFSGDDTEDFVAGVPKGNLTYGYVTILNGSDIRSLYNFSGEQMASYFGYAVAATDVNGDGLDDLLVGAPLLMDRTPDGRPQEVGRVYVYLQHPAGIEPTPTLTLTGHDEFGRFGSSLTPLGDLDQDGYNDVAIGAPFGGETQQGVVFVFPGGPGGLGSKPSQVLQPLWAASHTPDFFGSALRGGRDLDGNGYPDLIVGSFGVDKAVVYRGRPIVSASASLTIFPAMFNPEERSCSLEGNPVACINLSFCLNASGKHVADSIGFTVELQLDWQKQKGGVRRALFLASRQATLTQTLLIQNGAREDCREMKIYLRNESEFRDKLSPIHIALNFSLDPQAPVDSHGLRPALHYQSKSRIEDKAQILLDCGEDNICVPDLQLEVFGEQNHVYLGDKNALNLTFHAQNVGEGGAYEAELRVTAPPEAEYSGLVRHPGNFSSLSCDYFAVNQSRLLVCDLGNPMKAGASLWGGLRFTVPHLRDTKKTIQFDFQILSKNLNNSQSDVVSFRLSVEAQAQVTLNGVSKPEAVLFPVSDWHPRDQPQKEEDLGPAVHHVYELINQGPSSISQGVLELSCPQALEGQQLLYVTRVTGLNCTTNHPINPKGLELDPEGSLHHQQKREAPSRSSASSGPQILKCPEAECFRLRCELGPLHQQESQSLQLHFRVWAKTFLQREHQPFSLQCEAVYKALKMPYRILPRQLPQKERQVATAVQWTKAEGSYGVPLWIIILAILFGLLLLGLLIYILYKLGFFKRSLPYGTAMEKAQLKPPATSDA
T2 sequence (P05556 21-798 limits assumed, chain 2 of 2): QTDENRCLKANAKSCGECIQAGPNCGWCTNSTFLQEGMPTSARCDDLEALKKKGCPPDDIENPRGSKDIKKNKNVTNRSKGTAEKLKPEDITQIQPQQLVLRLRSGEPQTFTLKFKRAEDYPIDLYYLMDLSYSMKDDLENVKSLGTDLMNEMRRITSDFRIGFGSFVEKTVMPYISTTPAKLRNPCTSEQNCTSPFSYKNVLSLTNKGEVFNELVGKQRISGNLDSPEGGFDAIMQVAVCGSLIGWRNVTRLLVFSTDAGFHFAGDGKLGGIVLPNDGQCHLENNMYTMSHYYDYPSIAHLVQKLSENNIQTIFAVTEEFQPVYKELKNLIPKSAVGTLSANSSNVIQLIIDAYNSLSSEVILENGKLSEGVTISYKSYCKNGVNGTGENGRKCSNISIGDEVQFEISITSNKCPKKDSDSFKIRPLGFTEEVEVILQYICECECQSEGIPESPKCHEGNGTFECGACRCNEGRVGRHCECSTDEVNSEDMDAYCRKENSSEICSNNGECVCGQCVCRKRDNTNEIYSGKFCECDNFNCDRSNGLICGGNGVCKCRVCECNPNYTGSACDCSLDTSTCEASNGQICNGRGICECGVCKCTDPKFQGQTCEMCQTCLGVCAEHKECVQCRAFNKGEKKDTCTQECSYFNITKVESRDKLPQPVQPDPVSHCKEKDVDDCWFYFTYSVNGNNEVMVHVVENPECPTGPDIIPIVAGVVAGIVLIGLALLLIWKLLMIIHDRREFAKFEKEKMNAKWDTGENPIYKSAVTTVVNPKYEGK
T1 sequence (P06756 31-1048, chain 1 of 2): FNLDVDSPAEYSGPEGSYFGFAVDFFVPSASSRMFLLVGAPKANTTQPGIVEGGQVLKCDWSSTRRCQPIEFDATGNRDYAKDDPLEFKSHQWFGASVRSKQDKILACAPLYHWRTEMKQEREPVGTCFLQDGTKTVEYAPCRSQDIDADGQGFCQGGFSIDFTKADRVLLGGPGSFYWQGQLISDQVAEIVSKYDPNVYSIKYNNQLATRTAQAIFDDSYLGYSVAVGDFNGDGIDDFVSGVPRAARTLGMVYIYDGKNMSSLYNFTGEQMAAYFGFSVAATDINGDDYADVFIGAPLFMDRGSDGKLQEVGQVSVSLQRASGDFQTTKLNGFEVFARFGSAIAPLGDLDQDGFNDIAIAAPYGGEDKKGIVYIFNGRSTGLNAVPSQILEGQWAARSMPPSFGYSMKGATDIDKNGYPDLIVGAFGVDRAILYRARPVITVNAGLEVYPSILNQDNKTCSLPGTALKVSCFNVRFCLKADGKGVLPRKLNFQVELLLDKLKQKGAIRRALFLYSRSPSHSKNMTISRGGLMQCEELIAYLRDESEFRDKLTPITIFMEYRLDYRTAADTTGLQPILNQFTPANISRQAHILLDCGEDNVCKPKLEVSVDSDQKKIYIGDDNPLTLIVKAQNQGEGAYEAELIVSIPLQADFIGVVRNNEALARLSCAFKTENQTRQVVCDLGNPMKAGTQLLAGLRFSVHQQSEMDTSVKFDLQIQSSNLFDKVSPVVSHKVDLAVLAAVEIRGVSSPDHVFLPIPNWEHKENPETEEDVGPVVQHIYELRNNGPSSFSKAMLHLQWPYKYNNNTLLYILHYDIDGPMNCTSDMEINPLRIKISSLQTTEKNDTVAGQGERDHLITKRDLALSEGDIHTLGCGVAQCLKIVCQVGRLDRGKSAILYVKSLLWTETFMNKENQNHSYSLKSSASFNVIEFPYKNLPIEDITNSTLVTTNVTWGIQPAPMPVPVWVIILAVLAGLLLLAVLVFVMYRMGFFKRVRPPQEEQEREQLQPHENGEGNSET
T1 sequence (P05106 27-788, chain 2 of 2): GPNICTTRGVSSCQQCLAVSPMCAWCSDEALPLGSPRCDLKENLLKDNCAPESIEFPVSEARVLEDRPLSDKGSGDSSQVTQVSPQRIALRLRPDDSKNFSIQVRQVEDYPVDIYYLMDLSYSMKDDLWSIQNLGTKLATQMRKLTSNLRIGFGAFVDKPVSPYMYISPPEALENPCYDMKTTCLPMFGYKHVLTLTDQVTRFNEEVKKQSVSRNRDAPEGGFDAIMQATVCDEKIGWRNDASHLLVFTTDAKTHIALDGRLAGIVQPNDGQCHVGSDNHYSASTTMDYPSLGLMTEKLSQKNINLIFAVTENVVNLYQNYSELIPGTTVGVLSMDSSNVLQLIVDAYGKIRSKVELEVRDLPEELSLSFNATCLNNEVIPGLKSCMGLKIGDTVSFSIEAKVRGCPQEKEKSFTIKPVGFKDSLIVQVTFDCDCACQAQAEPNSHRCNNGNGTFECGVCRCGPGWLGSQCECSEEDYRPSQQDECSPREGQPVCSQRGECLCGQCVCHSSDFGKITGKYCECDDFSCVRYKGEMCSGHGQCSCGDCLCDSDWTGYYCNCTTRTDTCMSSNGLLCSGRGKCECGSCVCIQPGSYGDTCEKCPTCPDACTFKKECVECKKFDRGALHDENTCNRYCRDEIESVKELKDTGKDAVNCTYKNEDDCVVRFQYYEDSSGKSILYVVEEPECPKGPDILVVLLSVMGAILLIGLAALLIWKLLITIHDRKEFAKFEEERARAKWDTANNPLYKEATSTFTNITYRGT
T3 sequence (P08515 whole entry): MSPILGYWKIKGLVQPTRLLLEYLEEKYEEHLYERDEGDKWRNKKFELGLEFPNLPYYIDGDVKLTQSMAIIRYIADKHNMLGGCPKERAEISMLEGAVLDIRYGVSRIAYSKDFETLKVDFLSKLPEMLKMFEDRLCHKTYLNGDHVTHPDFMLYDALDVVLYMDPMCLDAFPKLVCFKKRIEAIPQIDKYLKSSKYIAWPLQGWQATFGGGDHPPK

B1
binding result [1]: no binding

B2
binding result [2]: binds

B3
binding result [3]: binds

B4
binding result [4]: binds | binding result [5]: no binding

B5
binding result [6]: binds | binding result [7]: binds
